Reference: patent publication US20220168400A1, “USE OF A MANGANESE SUPEROXIDE DISMUTASE WITH HIGH STABILITY IN THE PREVENTION OR TREATMENT OF CEREBRAL STROKE” (CARRY HEALTH BIOPHARMACEUTICALS (HANGZHOU) CO., LTD., priority 2019, published 2022)
Several values for one entry are separate records, joined by “and”; a condition that tells them apart may be missing. Equal entries are not always repeated.

How the values were obtained:
[1] = tested on: cerebral hemorrhage model in wild-type AB strain zebrafish; experiment: Simvastatin-induced cerebral hemorrhage model in zebrafish (incidence); format: in vivo; details: for Number of zebrafish with cerebral hemorrhage / Incidence of cerebral hemorrhage: n = 30; for Incidence of cerebral hemorrhage: model control 83%
Description: 1 dpf wild-type AB strain zebrafish was administered with an aqueous simvastatin solution (0.5 μM) for 18 hours to establish a cerebral hemorrhage model in zebrafish. 180 wild-type AB strain zebrafishes at 1 day post fertilization (1 dpf) were randomly selected and put in a six-well plate, 30 per well (experiment group). Simvastatin was used to induce a cerebral hemorrhage model in zebrafish. Aqueous MS-SOD solutions with concentrations of 222, 667 and 2000 μg/mL were administrated respectively, the concentration of positive control drug icariin was 30 μM, and the normal control group and the model control group were set at the same time. The volume of each well was 3 mL. After 18 hours of co-treatment with MS-SOD and simvastatin, 30 zebrafishes from each group were selected and observed under a microscope, photos were taken and saved. The number of zebrafish with cerebral hemorrhage was counted, and the incidence of cerebral hemorrhage in zebrafish of each experiment group was calculated.

[2] = tested on: cerebral hemorrhage model in wild-type AB strain zebrafish; experiment: Movement velocity in simvastatin-induced cerebral hemorrhage model in zebrafish; format: in vivo; details: for Movement velocity (mean ± SE): n = 10, model control 80, normal control 198 mm/s
Description: 5 dpf wild-type AB strain zebrafish was administered with an aqueous simvastatin solution (0.5 μM) for 18 hours to establish a cerebral hemorrhage model in zebrafish. 180 wild-type AB strain zebrafishes at 5 days post fertilization (5 dpf) were randomly selected and put in a six-well plate, 30 per well (experiment group). Aqueous MS-SOD solutions with concentrations of 222, 667 and 2000 μg/mL were administrated respectively, the concentration of positive control drug icariin was 30 μM, and the normal control group and the model control group were set at the same time. The volume of each well was 3 mL. After treatment of zebrafishes with samples for 4 hours, except for the normal control group, the other experiment groups were treated with simvastatin for 18 hours to establish the cerebral hemorrhage model. After the treatment, 10 zebrafishes from each group were randomly selected to measure the movement velocity (V) of zebrafish using a behavioral analyzer. The statistical significance of the movement velocity was used to evaluate the behavioral improvement effect of MS-SOD on cerebral hemorrhage. The formula of the behavioral improvement effect of MS-SOD on cerebral hemorrhage was as follows: [formula] Statistical analysis was performed using variance analysis and Dunnett's T-test, and p<0.05 indicated a significant difference.

B1: MS-SOD: manganese superoxide dismutase with high stability, gene from Thermus thermophilus HB27 expressed in E. coli; amino acid sequence SEQ ID NO: 4 (protein)
chain: MPYPFKLPDLGYPYEALEPHIDAKTMEIHHQKHHGAYVTNLNAALEKYPYLHGVEVEVLLRHLAALPQDIQTAVRNNGGGHLNHSLFWRLLTPGGAKEPVGELKKAIDEQFGGFQALKEKLTQAAMGRFGSGWAWLVKDPFGKLHVLSTPNQDNPVMEGFTPIVGIDVWEHAYYLKYQNRRADYLQAIWNVLNWDVAEEFFKKA
modifications: Amino acid sequence for MS-SOD
For B1, the “Improvement effect on cerebral hemorrhage” value ([1]; MS-SOD 222 μg/mL) was 28%, the “Number of zebrafish with cerebral hemorrhage” value (“Number of zebrafish” for short) ([1]; MS-SOD 222 μg/mL) was 18 and the “Incidence of cerebral hemorrhage” value ([1]; MS-SOD 222 μg/mL) was 60%. The “Improvement effect on cerebral hemorrhage” value ([1]; MS-SOD 667 μg/mL) was 20%, the “Number of zebrafish” value ([1]; MS-SOD 667 μg/mL) was 20 and the “Incidence of cerebral hemorrhage” value ([1]; MS-SOD 667 μg/mL) was 67%. For the same molecule, the “Improvement effect on cerebral hemorrhage” value ([1]; MS-SOD 2000 μg/mL) was 32%, the “Number of zebrafish” value ([1]; MS-SOD 2000 μg/mL) was 17 and the “Incidence of cerebral hemorrhage” value ([1]; MS-SOD 2000 μg/mL) was 57%. For the same molecule, the Movement improvement effect ([2]; MS-SOD 222 μg/mL) was −2%, the “Movement velocity (mean ± SE)” value ([2]; MS-SOD 222 μg/mL) was 78 mm/s and 78 ± 4 mm/s and the Movement improvement effect ([2]; MS-SOD 667 μg/mL) was 7%. The “Movement velocity (mean ± SE)” value ([2]; MS-SOD 667 μg/mL) was 88 mm/s and 88 ± 3 mm/s, the Movement improvement effect ([2]; MS-SOD 2000 μg/mL) was 53% and the “Movement velocity (mean ± SE)” value ([2]; MS-SOD 2000 μg/mL) was 143 mm/s and 143 ± 24 mm/s.
